# Article PMC12204359, “Mechanistic Design of Cell-Penetrating Disruptors for a Phospho-Dependent Interaction” (Research Square, 2025)
# Positions of bridges follow the written chain, without caps; N, C: chain ends. Non-standard residues stand in square brackets, D forms with d. Primed or numbered codes have the meaning given here. No end group written: not given here. FAM″ = 5(6)-carboxyfluorescein label; pS = N[C@@H](COP(=O)(O)O)C(=O)O; FAM = 5(6)-carboxyfluorescein; S5 = C=CCCC[C@](C)(N)C(=O)O
# T1: clathrin heavy chain minimal ankle region (CHC^ankle, aa 358–574) (human, UniProt Q00610 358-574)
# T1 construct: modified pGEX vector with a TEV-cleavable GST tag; also called CHC ankle region protein; WT CHC
# T1 sequence (looked up): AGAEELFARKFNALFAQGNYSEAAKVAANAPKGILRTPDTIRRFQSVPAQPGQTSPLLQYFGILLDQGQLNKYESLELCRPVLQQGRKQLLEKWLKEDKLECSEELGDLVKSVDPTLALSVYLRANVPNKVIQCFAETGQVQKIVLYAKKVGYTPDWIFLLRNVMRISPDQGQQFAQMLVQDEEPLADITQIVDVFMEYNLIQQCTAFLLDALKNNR
# T2: biotinylated Avi-tagged ankle region of clathrin (aa 358–574) (human, UniProt Q00610 358-574, biotin)
# T2 construct: held on a streptavidin chip (SPR) or detected with an anti-biotin antibody (peptide arrays)
# T2 sequence (looked up): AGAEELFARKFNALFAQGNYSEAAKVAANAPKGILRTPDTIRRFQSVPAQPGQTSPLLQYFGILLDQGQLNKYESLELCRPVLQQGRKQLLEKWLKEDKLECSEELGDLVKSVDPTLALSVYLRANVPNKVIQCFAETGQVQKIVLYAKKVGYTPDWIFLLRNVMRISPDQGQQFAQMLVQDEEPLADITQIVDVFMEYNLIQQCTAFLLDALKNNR
# Experiments:
# Conditions in all cases: both partners purified
# [1] = target: T1, clathrin heavy chain minimal ankle …; experiment: fluorescence polarisation; direct binding, FAM-labelled TACC3 peptides and CHC protein; 20 mM HEPES pH 7.5, 150 mM NaCl, 5 mM DTT, 0.05% Tween-20; triplicate; one-site specific binding model
# [2] = target: T1, clathrin heavy chain minimal ankle …; experiment: NMR titration; CHC titrated into ~140 μM 15N-labelled GB1-TACC3 or GB1-pTACC3 to a 1:5 CHC:TACC3 molar ratio; loss of 1H–15N HSQC peak intensity
# [3] = target: T2, biotinylated Avi-tagged ankle region of …; experiment: peptide or protein array; peptides synthesised on cellulose membrane; 1 μM biotinylated clathrin 358–574 in 20 mM HEPES pH 7.5, 150 mM NaCl, 5 mM DTT, 0.05% Tween-20, 1 h room temperature; anti-biotin HRP
Kd [1] [µM],binding result [3],further results,Binder
146,–,–,"{FAM}-FKESALRKQSLYLAFDPLLRDS (peptide, UniProt Q9Y6A5 549-570, looked up, human TACC3 CID, aa 549-570, K562A, no phosphate; also called K562A^TACC3; source: synthetic peptide, bought: PPR, Alta Bioscience or Biomatik Corporation) [FAM-TACC3 CID K562A peptide, unphosphorylated]"
314,–,–,"{FAM}-FKESALRKQELYLKFDPLLRDS (peptide, UniProt Q9Y6A5 549-570, looked up, human TACC3 CID, aa 549-570, S558E; also called phosphomimetic glutamic acid variant; S558E TACC3^CID; source: synthetic peptide, bought: PPR, Alta Bioscience or Biomatik Corporation) [FAM-TACC3 CID S558E peptide]"
23,–,–,"{FAM}-FKESALRKQ[pS]LYLAFDPLLRDS (peptide, UniProt Q9Y6A5 549-570, looked up, human TACC3 CID, aa 549-570, pS558, K562A; also called K562A^pTACC3; source: synthetic peptide, bought: PPR, Alta Bioscience or Biomatik Corporation) [FAM-pTACC3 CID K562A peptide]"
26,–,–,"{FAM}-FKESALAKQ[pS]LYLAFDPLLRDS (peptide, UniProt Q9Y6A5 549-570, looked up, human TACC3 CID, aa 549-570, pS558, R555A and K562A; also called R555A K562A^pTACC3; source: synthetic peptide, bought: PPR, Alta Bioscience or Biomatik Corporation) [FAM-pTACC3 CID R555A K562A peptide]"
52,–,–,"{FAM}-FKESALAKQ[pS]LYLKFDPLLRDS (peptide, UniProt Q9Y6A5 549-570, looked up, human TACC3 CID, aa 549-570, pS558, R555A; also called R555A^pTACC3; source: synthetic peptide, bought: PPR, Alta Bioscience or Biomatik Corporation) [FAM-pTACC3 CID R555A peptide]"
–,–,binding result [2]: binds,"GTSSFKESALRKQ[pS]LYLKFDPLLRDSPGR (domain or fragment, human, UniProt Q9Y6A5 545-573, looked up, also: 15N/13C labelled, human TACC3 aa 545-573 (the results say aa 546-573), pS558, fused to the small protein GB1; also called phosphorylated GB1-TACC3 CID; source: E. coli BL21 (DE3) RIL, purified; phosphorylated in situ with Aurora-A (122–403) and TPX2 (1–43); not shown: His-NusA, N-terminal, cleaved) [GB1-pTACC3]"
–,binds,–,"KESALRKQDLLLQFDPLLR (peptide, UniProt Q9Y6A5 550-568, looked up, also: 8-amino-3,6-dioxaoctanoic acid spacer to cellulose membrane, end not given here, human TACC3 aa 550-568 with S558D, Y560L, K562Q; source: synthesised on cellulose membrane (MultiPep 2)) [array peptide TACC3 550–568 S558D Y560L K562Q]"
–,binds,–,"KESALRKQDLLLEFDPLLR (peptide, UniProt Q9Y6A5 550-568, looked up, also: 8-amino-3,6-dioxaoctanoic acid spacer to cellulose membrane, end not given here, human TACC3 aa 550-568 with S558D, Y560L, K562E; source: synthesised on cellulose membrane (MultiPep 2)) [array peptide TACC3 550–568 S558D Y560L K562E]"
–,binds,–,"KESALRKQDLLLIFDPLLR (peptide, UniProt Q9Y6A5 550-568, looked up, also: 8-amino-3,6-dioxaoctanoic acid spacer to cellulose membrane, end not given here, human TACC3 aa 550-568 with S558D, Y560L, K562I; source: synthesised on cellulose membrane (MultiPep 2)) [array peptide TACC3 550–568 S558D Y560L K562I]"
–,binds,–,"KESALRKQDLLLLFDPLLR (peptide, UniProt Q9Y6A5 550-568, looked up, also: 8-amino-3,6-dioxaoctanoic acid spacer to cellulose membrane, end not given here, human TACC3 aa 550-568 with S558D, Y560L, K562L; source: synthesised on cellulose membrane (MultiPep 2)) [array peptide TACC3 550–568 S558D Y560L K562L]"
–,binds,–,"KESALRKQDLLLQFDPLFR (peptide, UniProt Q9Y6A5 550-568, looked up, also: 8-amino-3,6-dioxaoctanoic acid spacer to cellulose membrane, end not given here, human TACC3 aa 550-568 with S558D, Y560L, K562Q, L567F; source: synthesised on cellulose membrane (MultiPep 2)) [array peptide TACC3 550–568 S558D Y560L K562Q L567F]"
–,binds,–,"KESALRKQDLLLEFDPLFR (peptide, UniProt Q9Y6A5 550-568, looked up, also: 8-amino-3,6-dioxaoctanoic acid spacer to cellulose membrane, end not given here, human TACC3 aa 550-568 with S558D, Y560L, K562E, L567F; source: synthesised on cellulose membrane (MultiPep 2)) [array peptide TACC3 550–568 S558D Y560L K562E L567F]"
–,binds,–,"KESALRKQDLLLIFDPLFR (peptide, UniProt Q9Y6A5 550-568, looked up, also: 8-amino-3,6-dioxaoctanoic acid spacer to cellulose membrane, end not given here, human TACC3 aa 550-568 with S558D, Y560L, K562I, L567F; source: synthesised on cellulose membrane (MultiPep 2)) [array peptide TACC3 550–568 S558D Y560L K562I L567F]"
–,binds,–,"KESALRKQDLLLLFDPLFR (peptide, UniProt Q9Y6A5 550-568, looked up, also: 8-amino-3,6-dioxaoctanoic acid spacer to cellulose membrane, end not given here, human TACC3 aa 550-568 with S558D, Y560L, K562L, L567F; source: synthesised on cellulose membrane (MultiPep 2)) [array peptide TACC3 550–568 S558D Y560L K562L L567F]"
–,binds,–,"KESALRKQDLILLFDPLLR (peptide, UniProt Q9Y6A5 550-568, looked up, also: 8-amino-3,6-dioxaoctanoic acid spacer to cellulose membrane, end not given here, human TACC3 aa 550-568 with S558D, Y560I, K562L; source: synthesised on cellulose membrane (MultiPep 2)) [array peptide TACC3 550–568 S558D Y560I K562L]"
–,binds,–,"KESALRKQDLWLLFDPLLR (peptide, UniProt Q9Y6A5 550-568, looked up, also: 8-amino-3,6-dioxaoctanoic acid spacer to cellulose membrane, end not given here, human TACC3 aa 550-568 with S558D, Y560W, K562L; source: synthesised on cellulose membrane (MultiPep 2)) [array peptide TACC3 550–568 S558D Y560W K562L]"
–,binds,–,"KESALRKQDLILLFDPLFR (peptide, UniProt Q9Y6A5 550-568, looked up, also: 8-amino-3,6-dioxaoctanoic acid spacer to cellulose membrane, end not given here, human TACC3 aa 550-568 with S558D, Y560I, K562L, L567F; source: synthesised on cellulose membrane (MultiPep 2)) [array peptide TACC3 550–568 S558D Y560I K562L L567F]"
–,binds,–,"KESALRKQDLWLLFDPLFR (peptide, UniProt Q9Y6A5 550-568, looked up, also: 8-amino-3,6-dioxaoctanoic acid spacer to cellulose membrane, end not given here, human TACC3 aa 550-568 with S558D, Y560W, K562L, L567F; source: synthesised on cellulose membrane (MultiPep 2)) [array peptide TACC3 550–568 S558D Y560W K562L L567F]"
~750,–,–,{FAM″}-KESALRK[S5]ELL[S5]EADPAFRDS-NH2 (staple 8-12) [negative control SP TACC3 (F563A & L566A)]
